The results in this text go back to the domain aggregation screens of Martell et al. (2025).
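Also: 20 min heating vs room temperature control held 20 min.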

A short description of this series: soluble fraction after stress (log2 fold change); higher = more stays soluble; pooled small domains, quantitative proteomics. The note with it: stress: 75 degC.
On to “HMNPSAFSEYSFELLQSALLKKKIDENLSNQTIARDAGVSEAFVQKVLTNNVKRPSVKNRVRMISYLGLD”, for which the “soluble fraction (log2)” value was -1.47.
Next, “HMNPSFTMGTRIKEYIDAHYLEDLKLADIAEALHINLYYLSHTFKDLTGSSPMQYIIRRRIEE”: -0.857; “HMNPSPYLRRHLSGDWGDLDEDDRRSNDAALASGEARLLSSYQVDPDLKLWIITEWDRSVTTLLLPSE”: -0.0994.
For “HMNPTLPYGFAKRHGVILLEAGEVAVVGLREGADPAALIETRRALGRPLRVEPLDQATFDRRLSQVYA”, the “soluble fraction (log2)” value is -0.512.
Next, “HMNPTSLTFRSNVKDGKVYVDGIFKGSSDLDFDLPKGRHSIRIEKDGYVPFAKTINLIKALVIDFNMEKA”: -2.02; “HMNPTTQIQYNLPKSEFVSIYIYDLIGNRVKSLINNYQDAGYKSVYWDAMNDLGQPVSAGMYIY”: -0.0727.
Take “HMNQKKFIQADYEDRLFDHLAFEVKDMEKIISMMRREKFTITDEPFRLSPTGSLIAFVEDPDRTLIELIER”: the “soluble fraction (log2)” value was -0.41.
Next, “HMNQNAMIGAHIRNLRLAKKLTLKQLSDESGLSVGFLSQLERGMSSIAIDTLARLAHILGADLSSFF”: -2.65.
Next, “HMNQRQLQIKQMLDVAQEVFLKQLKTVFPDVSEMTIRRDLILLEDMGYAVRTHGGAVSINRF”: -2.42; “HMNQRTATVTASQLNVRSGPSTAYSIVHVLRQGETVEVIGESDGWYQIRLKDGRVGWSSGQYLNLN”: -0.142.
“HMNQSAVMAERMKQTKNRILQTAKEIFLEQGYKRTTIRQIVERSGITSGSIYNIFSSKEEIFSALVDDL”: the “soluble fraction (log2)” value was -3.
With “HMNQSYQLWIKDDELGPTPRSVGVLNEHFEVDPAALTNYDAELLRRATFGISLEPRGGSPTGQP”, the “soluble fraction (log2)” value was -0.192.
Next, “HMNQTPQISYSQFIADVRSGQIKDVNIDSDNRTIVGHKFSGEEFTTFSPGDNKLVDELLNYNVEIKTSP”: 0.611; “HMNREEFLSQLERLLYDIPAQEREEALEYYNGYFDDAGKEKEAEVIQELGSPGKVAAIIKADLSG”: 0.12; “HMNRETAISIYRILHILEEPYKEVFTLRTLGDLSYREIADIFGKQENWARVTYHRAKLKIREALVS”: -2.23.
As for “HMNRIFQERVVPAELDTLRADKVAASLFSDFSRNELAHWIKMGDLSINGGVKKAKDKLFEGDVLILDVEIV”, the “soluble fraction (log2)” value was -0.944.
Next, “HMNRKILVLLAGKEQITDNVSVMQSIHRYAFINTATINKAQHEILIEKEEIRQEALTLIHEFLK”: -0.97; “HMNRKLKAKATREKIYKSAEKLFSQNDYNKVSVDAIVEAAGVAKGSFYVHFASKDALIAMLINDH”: -0.448; “HMNRMKLLREQHNLSQTDLAKILNISRQSYNFYENEKRDPDTTMLIRIADFFNVSLDYLLGRTNN”: -2.84.
Next, “HMNRPYVELFSGLGQEEAQQIVQKLQEDEVDYKFSGDSTILVKEDVVDQTKATLVQEGYPKS”: 0.153; “HMNSEEINDVRKAVDELPTHLREILLLNYFQQMSYVQISDSLEIPLGTVKSRLHAAVAAFRNAWQSSQEE”: -0.484.
Then “HMNSEELFLRRIAQELIDQHGKDLHRIIVVLPSNRSKVFLKKFLFEILGSAFLTPQLMLLPQFVKSIV”, with -0.425; and “HMNSFGWESFVGEKGVTDTDLRPSGWIVIKDKRLFALTEGTFIEKGVSVEILSVEGNRIVVREIS”, with -2.9; and “HMNSHKIIDRLNQMITEKDLSEEMPAITEAFKNNERSAEDLKKYVAENLSKKLNAEEREKFVSLILQYRN”, with -0.0788.
On to “HMNSILFAITKEGGVVYGGKPVGVNGVRPLVRRLLQSEEMPVILQVDEKADAGLVIRVIDESKLGGASKV”, for which the “soluble fraction (log2)” value is -0.372.
Then “HMNSIQEQIEKYVYSLAPVTIERYESLKNGDIEDIEFEKLRKSISSKIINEKIDNKKQVAILSHLKKMYSD”, with -0.159.
Consider “HMNSKIIVESIIKSKNGIAKVADLVEGGVSRQSIKKMYADGYIKRISRGYYTLTSEPVSSDEQVISS”, for which the “soluble fraction (log2)” value is -0.645.
Consider “HMNSKMTYSELITSMENKEVESVKISSSGDVASVKLKNSKTEKEVKIPSLDSFMTYTEQYLKTGEITLEE”, for which the “soluble fraction (log2)” value amounted to 0.0529.
For “HMNSKMTYSELVTNITNKEVESIKISSTGSTASVKLKNSKSEKEVNIPSLDSFMSYTEEYLKTGDFTLDEE”, the “soluble fraction (log2)” value turned out to be 0.586.
Then “HMNSLKNKNNLIALVGASNDKNKYGNKILLDLVSKGHNVVPINPKEDTVAGLKSYNNVSELSEKPSI”, with -0.523; and “HMNSLPFSNFMNEVEAGRVVEVKIQGNNISGVLANGKTFSTYSPNYPELVEKLSSNGVSIVATPQ”, with 0.28.
Then “HMNSRTLAYSDFIRKVDKGEVSAVVIDGEQVQVQTKDGQTFVTIQPQSEQMNDKLVEQLIAKDISVKAERQ”, with -0.0843; and “HMNSSLFLARQVHALRKKAGLTLQQLSRKSDVSVSTLSKIEKGQLSPTYEKIVSLARGLDVPIAALFHE”, with -2.45; and “HMNSSTVDLAKEFLIDLLSSVEKMPASEVQEEAKNAGYSVASIRRAKDNLNIKPFKDGSAWYWKLPSIFK”, with -0.329.
Then “HMNSSTYIVTFKVDGEEDIVETYQWGDRIIVPEVEAKDDYVFIGWDAQIPEFMPERNLEFTAI”, with -0.895; and “HMNSTNYQVIITANGGLNIRAGASTAYARIGGYAKGTVVTILAESNGFGKTDKGWISLNYTSKDLD”, with -3.11.
Consider “HMNTAALSLQRRNEIKKWLLEEKTLTVAALSNRFNVTYETIRRDLEILEKEGFLKKVYGGAALNERV”, for which the “soluble fraction (log2)” value was -2.83.
Turning to “HMNTAIDGLIEKVGMFAMEKKAISVDQVKENFSINGEQAESVIKQLETIGVLGKKNEDGTHTVM”, the “soluble fraction (log2)” value came out at 0.159.
In the case of “HMNTDALIGKTGYVTEIVGERHGRIQFSGGEWSARTEGVSIPVGAEVRVDRIDGATAVVSAV”, the “soluble fraction (log2)” value was 0.114.
Then “HMNTDVEKQKVFTALFDDYFRRNSMTSLEKQLFLTALKTNFQNAQKTVAKDHPYYATYSLIISAIENYR”, with -0.525.
Next, “HMNTEEKILEKEFLMLYSELGLQPKNIYELMENTGLKYEKLVEMLLQLQLKGLVEQPSYNYYSRL”: -1.28; “HMNTEEVGSYLKKLRLEHSFTQKELAGKLYITHQAVSNWEKGKALPDIGILSQLGDIYGISIDNLLLK”: -2.04; “HMNTEKRVFAGVENTRLDHFLVEQFPEFSRTFIQQMIKSANVIVNGNIEKASYKLREGDTIMTRPM”: -0.489.
In the case of “HMNTELFTKNLFNKLEVLLGEKNWKSKTAQLLNISSDAFYKKIRNESQLNLHELLLIKDTFKISIDALLDE”, the “soluble fraction (log2)” value is -1.35.
Next, “HMNTETAVTKAIDQIQVMMDLRNRSVSFTRDQETGTDIIKVIDDNTGDTIRQMPSEELLTFMKNLTQ”: 0.165; “HMNTFKNIFIQEGDLFNLKKNDNQIIFAKEGILINENKKIFRLLNGKIISTNNNRLIGFEFDKIDYNLSN”: 0.561.
With “HMNTGIPHQEVIKKLYSFAEGGDWKGLKEELNRIKEYTLFYNSVKELADSFEINRLIEKLKTYIF”, the “soluble fraction (log2)” value was -0.127.
On to “HMNTGLSEREHEIAQLVLQGRTYAEIGAELFISPRTAEHHIGQIRRRLAATSRSDLLAKLRVAMNTTEGAG”, for which the “soluble fraction (log2)” value was -2.36.
Then “HMNTISYTELIKQIDEGNVEKVEMTVGSTSVKVKLQGQEEEKKAIVPNTQAFVELIQEKTLEGNQIDLKQN”, with 0.0122.
Regarding “HMNTLSPVRILAILDGRSSMAEWQLAEELGVSIDNLSEILNKMSTDGQIRLVPSEDGRMVVP”, the “soluble fraction (log2)” value is 0.597.
